Columns and labels:
[1] = biological target: T1, GRP-78 (Homo sapiens, UniProt P11021); assay: Phage display panning against GRP-78 with DNA sequencing of picked phages; assay type: binding; conditions: 24 independent phages picked after panning
From the text: (a) A desired target protein 10 is fixed at bottom of a container added with selected phages 11 from phage display library.
(b) Each phage 11 is bound to the target protein 10 by using amino acid sequences contained in the phage 11.
(c) A TBST buffer having 0.1% Tween-20 is obtained for processing washing. By using Tween-20 as a surfactant, unspecific bindings are destroyed.
(d) The phages 11 which are bound to the target protein 10 are eluted under a weak acid status to be collected.
(e) after amplifying the collected phages 11 bound to the target protein 10, a panning process of binding, washing and eluting as in step (b) to step (d) is run for two times. For better screening efficiency, a density of Tween-20 is increased after each time of the panning process. It is because that the unspecific bindings are not destroyed with a too low density of Tween-20; yet a too high density of Tween-20 not only destroys the specific bindings between the phages 11 and the target protein 10 but also destroys integrities of proteins in the phages 11.
(f) Then, a quantification process is run with the screened phages 11 for estimating screening efficiency. DNA sequencing is then processed with the phages 11 to obtain actual sequences of 7 amino acids deposed on g3 protein (g3p). […]

[2] = biological target: T1, GRP-78; assay: ELISA analysis of phage affinity to GRP-78; assay type: binding; conditions: Maxisorb 96-well plate coated with GRP-78; CPS minus background without GRP-78; serially diluted phages
Procedure: (g) In the end, enzyme-linked immunosorbent assay (ELISA) analysis is processed with the phages 11 to obtain high-affinity amino acid sequences of peptides.
In FIG. 2, after three times of the panning process, luminescent antibodies 12 (HRP-conjugated M13-phage g8p monoclone antibody) against the phages 11 are added to be washed with the TBST buffer having 0.5% Tween-20. At last, an enhanced chemiluminescence (ECL) substrate is added for developing.
Please further refer to FIG. 4 and FIG. 5, which are a view showing a calculating process and a result of an ELISA analysis. As shown in the figures, the four sequences selected from the five sequences are numbered as phage#01, phage#03, phage#13 and phage#15 for comparing their affinities to GRP-78. An ELISA analysis is processed after values of densities of the phages are deducted by background values at the same densities. In FIG. 3, Maxisorb 96-well plate is used. Row 11 and row 12 are not used. A1˜A10, C1˜C10, E1˜E10 and G1˜G10 are coated with GRP-78. 80 wells of A1˜A10, B1˜B10, C1˜C10, D1˜D10, E1˜E10, F1˜F10, G1˜G10, H1˜H10 and […] along with 40 clean wells are all blocked. On diluting the phages, the plate containing the 80 blocked wells along with the 40 blocked clean wells is used. The first to the tenth wells in each row contain phages sequentially diluted. […] A number of counts per second (CPS) is obtained by using an ELISA reader. […]

T1 sequence (P11021 19-654, species assumed): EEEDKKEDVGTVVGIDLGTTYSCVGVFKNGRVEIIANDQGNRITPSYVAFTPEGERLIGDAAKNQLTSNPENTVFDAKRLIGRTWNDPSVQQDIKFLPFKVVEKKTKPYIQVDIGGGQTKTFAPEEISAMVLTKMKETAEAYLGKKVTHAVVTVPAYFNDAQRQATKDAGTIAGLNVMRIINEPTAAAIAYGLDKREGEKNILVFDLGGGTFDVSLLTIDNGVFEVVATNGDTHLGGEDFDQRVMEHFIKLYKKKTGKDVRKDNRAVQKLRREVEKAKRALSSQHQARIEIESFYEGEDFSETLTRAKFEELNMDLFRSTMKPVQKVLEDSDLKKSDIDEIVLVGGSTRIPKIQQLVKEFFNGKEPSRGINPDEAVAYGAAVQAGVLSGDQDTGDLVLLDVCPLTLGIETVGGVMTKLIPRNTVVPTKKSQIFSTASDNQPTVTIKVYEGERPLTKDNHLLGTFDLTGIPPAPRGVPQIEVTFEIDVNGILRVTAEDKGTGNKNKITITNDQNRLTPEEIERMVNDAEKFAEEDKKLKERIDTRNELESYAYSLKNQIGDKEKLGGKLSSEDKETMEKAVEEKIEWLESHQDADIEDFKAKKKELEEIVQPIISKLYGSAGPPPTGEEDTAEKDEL

| Substance | occurrence of the sequence among picked phages [1] | affinity / binding force to GRP-78 (ELISA curve, pure CPS vs phage density) [2] |
| --- | --- | --- |
| KLWVIPQ [ruled out for later analysis] | very few occurrences | – |
| KCCY | – | strong binding forces |
| KVW | – | strong binding forces |
| YSLRMDF | very few occurrences | – |

Source: patent US20130109580A1, “High-Affinity Peptide Probes for Tumor Biomarker, GRP-78, and Screening Method Thereof” (ATOMIC ENERGY CONCIL-INSTITUTE OF NUCLEAR ENERGY RESEARCH, priority 2011, published 2013)
